Experimental data: patent US20110207677

Target: T1, L-TAT-IB1(s)
T1 chain: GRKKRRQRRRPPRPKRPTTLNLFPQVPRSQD

B1: Recombinant and non activated JNK3 (protein)
chain: MSLHFLYYCSEPTLDVKIAFCQGFDKQVDVSYIAKHYNMSKSKVDNQFYSVEVGDSTFTVLKRYQNLKPIGSGAQGIVCAAYDAVLDRNVAIKKLSRPFQNQTHAKRAYRELVLMKCVNHKNIISLLNVFTPQKTLEEFQDVYLVMELMDANLCQVIQMELDHERMSYLLYQMLCGIKHLHSAGIIHRDLKPSNIVVKSDCTLKILDFGLARTAGTSFMMTPYVVTRYYRAPEVILGMGYKENVDIWSVGCIMGEMVRHKILFPGRDYIDQWNKVIEQLGTPCPEFMKKLQPTVRNYVENRPKYAGLTFPKLFPDSLFPADSEHNKLKASQARDLLSKMLVIDPAKRISVDDALQHPYINVWYDPAEVEAPPPQIYDKQLDEREHTIEEWKELIYKEVMNSEEKTKNGVVKGQPSPSGAAVNSSESLPPSSSVNDISSMSTDQTLASDTDSSLEASAGPLGCCR
- JNK3 phosphorylation of Elk1 (solid phase kinase assay): a marked exception was the absence of TAT-IB(s) inhibition of JNK3 phosphorylation of Elk1
